The text below walks through data of PMC4770226.

In series [1] the target is Ku70/Ku80 heterodimer, wild-type (human, UniProt P12956;P13010 1-609;1-732). Nature of the series: pull-down.
Another series has as its target Ku70-5A/Ku80 heterodimer (human, UniProt P12956;P13010 1-609;1-732, T305A;S306A;T307A;S314A;T316A;Ku70:). Kind of series: pull-down.

Sequence of Ku70-5A/Ku80 heterodimer (P12956 whole entry T305A/S306A/T307A/S314A/T316A, chain 1 of 2): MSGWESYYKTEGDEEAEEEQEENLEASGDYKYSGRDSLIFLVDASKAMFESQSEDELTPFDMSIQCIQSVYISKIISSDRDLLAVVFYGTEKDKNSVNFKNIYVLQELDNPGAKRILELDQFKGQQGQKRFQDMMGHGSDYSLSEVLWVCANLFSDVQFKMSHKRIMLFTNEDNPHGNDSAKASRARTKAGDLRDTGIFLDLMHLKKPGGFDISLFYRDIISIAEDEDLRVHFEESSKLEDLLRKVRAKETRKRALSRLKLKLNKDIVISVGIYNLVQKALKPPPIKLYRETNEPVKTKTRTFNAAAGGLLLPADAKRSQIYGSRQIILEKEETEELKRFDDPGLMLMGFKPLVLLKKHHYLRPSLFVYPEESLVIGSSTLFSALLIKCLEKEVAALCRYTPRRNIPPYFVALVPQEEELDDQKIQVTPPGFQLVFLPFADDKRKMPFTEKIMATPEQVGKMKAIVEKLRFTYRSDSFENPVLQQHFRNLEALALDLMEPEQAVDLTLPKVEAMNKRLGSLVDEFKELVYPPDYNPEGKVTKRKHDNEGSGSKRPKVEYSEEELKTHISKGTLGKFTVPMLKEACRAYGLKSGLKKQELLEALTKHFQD
Sequence of Ku70-5A/Ku80 heterodimer (P13010 whole entry, stated change not applied, chain 2 of 2): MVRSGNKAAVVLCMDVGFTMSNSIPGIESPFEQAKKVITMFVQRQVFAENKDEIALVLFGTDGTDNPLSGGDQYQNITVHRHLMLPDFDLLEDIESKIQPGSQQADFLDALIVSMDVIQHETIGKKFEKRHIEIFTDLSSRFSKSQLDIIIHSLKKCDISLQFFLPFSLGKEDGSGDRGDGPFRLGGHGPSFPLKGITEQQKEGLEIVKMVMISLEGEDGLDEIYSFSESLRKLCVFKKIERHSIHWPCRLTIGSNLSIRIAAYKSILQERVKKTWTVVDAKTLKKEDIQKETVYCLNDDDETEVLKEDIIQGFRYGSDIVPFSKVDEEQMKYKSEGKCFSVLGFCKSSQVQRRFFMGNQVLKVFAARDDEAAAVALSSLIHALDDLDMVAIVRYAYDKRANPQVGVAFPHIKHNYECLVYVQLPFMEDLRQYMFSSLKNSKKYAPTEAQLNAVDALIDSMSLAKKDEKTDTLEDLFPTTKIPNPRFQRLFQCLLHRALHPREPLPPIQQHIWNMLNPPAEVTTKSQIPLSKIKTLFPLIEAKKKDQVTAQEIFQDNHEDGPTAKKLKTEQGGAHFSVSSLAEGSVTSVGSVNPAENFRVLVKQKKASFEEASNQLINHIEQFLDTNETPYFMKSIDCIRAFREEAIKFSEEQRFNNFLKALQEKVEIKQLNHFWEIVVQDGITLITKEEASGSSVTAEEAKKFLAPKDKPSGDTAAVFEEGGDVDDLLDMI
Sequence of Ku70/Ku80 heterodimer, wild-type (P12956 whole entry, chain 1 of 2): as the sequence (P12956 whole entry T305A/S306A/T307A/S314A/T316A, chain 1 of 2) above, with A305T, A306S, A307T, A314S, A316T counted along it
Sequence of Ku70/Ku80 heterodimer, wild-type (P13010 whole entry, chain 2 of 2): as the sequence (P13010 whole entry, stated change not applied, chain 2 of 2) above

B1: biotin-labeled forked 22-mer dsDNA (dsDNA)
DNA 1: CGCGCCCAGCTTTCCCAGCTAATAAACTAAAAACTCCTAAGG
DNA 2: CCTTAGGAGTTTTTAGTTTATTGGGCGCG
With B1, the binding result (in series [1]; with Ku70-5A/Ku80 heterodimer) was “binds” in each case.
